The labels stand for the following.
B1: PNUGT29-2: Panax notoginseng glycosyltransferase, 442 amino acids, SEQ ID NO: 41 (protein)
chain: MDNQKGRISIALLPFLAHGHISPFFELAKQLAKRNCNVFLCSTPINLSSIKNKDSSASVKLVELHLPSSPDLPPHYHTTNGLPSHLMVPLRNAFETVGPTFSEILKTLNPDLLIYDFNPSWAPEIASSHNIPAVYFLTTAAASSSIGLHAFKNPGEKYPFPDFYDNSNITPEPPSADNMKLLHDFIACFERSCDIILIKSFRELEGKYIDLLSTLSDKTLVPVGPLVQDPMGHNEDPKTEQIINWLDKRAESTVVFVCFGSEYFLSNEELEEVAIGLEISMVNFIWAVRLIEGEKKGVLPEGFVQRVGDRGLVVEGWAPQARILGHSSTGGFVSHCGWSSIAESMRFGVPVIAMARHLDQPLNAKLAAEVGVGMEVVRDDNGKYKREGIAEVIRKVVVEKSGEVIRRKARELSEKMKEKGEQEIDRAVEELVQICKKKKDAQ
modifications: Panax notoginseng
B2: PNUGT29-15: Panax notoginseng glycosyltransferase, 447 amino acids, SEQ ID NO: 59 (protein)
chain: MDIEKGRISIVMLPFLAHGHISPFFELAKHLSKRNCNIFLCSTPINLSSIKNRVSDKDSSASIKLVELHLPSSPDLPPQYHTTNGLPSHLMVPLKNAFETVGPTFSEILKTLDPDLLIYDFNPSWAPEIALSHNIPAVYFLTSAAATSSVALRALKNPGEKYPFPDFYDNSNITPEPPSADKMKLFHDFVACFKRSCDIILIKSFRELEGKYIDLLSTLSKKTLVPVGPLVQDHLGHDEDPKTGHLINWLDKRAESTVVFVCFGSEYFPSNEELEEVAIGLEISMVNFILAVRFLEGEKKGVLPEGFVQRVGDRGLVVEGWAPQARILGHSSTGGFVSHCGWSSIMESVKFGVPVIAMARHLDQPLNAKLAAEVGVGMEVVRDENGKYTREAIAEVIRKVVMEKNGEVIRRKARELSDKMKEKGEQEIGRAVEELVQICKMKKDAQY
modifications: Panax notoginseng
B3: PNUGT29-6: Panax notoginseng glycosyltransferase, 447 amino acids, SEQ ID NO: 49 (protein)
chain: B2 chain with D56G, H234P
modifications: Panax notoginseng
B4: PNUGT29-3: Panax notoginseng glycosyltransferase, 447 amino acids, SEQ ID NO: 43 (protein)
chain: B2 chain with H234P, T389K, D418E, K423T
B5: PNUGT29-1: Panax notoginseng glycosyltransferase, 447 amino acids, SEQ ID NO: 39 (protein)
chain: B2 chain with N52S, H234P
modifications: Panax notoginseng
B6: PNUGT29-5: Panax notoginseng glycosyltransferase, 447 amino acids, SEQ ID NO: 47 (protein)
chain: B2 chain with H234P, K442M
modifications: Panax notoginseng
B7: PNUGT29-4: Panax notoginseng glycosyltransferase, 447 amino acids, SEQ ID NO: 45 (protein)
chain: B2 chain with H234P
modifications: Panax notoginseng
B8: PNUGT29-7: Panax notoginseng glycosyltransferase, 447 amino acids, SEQ ID NO: 51 (protein)
chain: B2 chain with L117F, H234P
modifications: Panax notoginseng
B9: PNUGT29-8: Panax notoginseng glycosyltransferase, 447 amino acids, SEQ ID NO: 53 (protein)
chain: B2 chain with H234P, E373G, T389K, D418E, K423T
modifications: Panax notoginseng
B10: PNUGT29-9: Panax notoginseng glycosyltransferase, 447 amino acids, SEQ ID NO: 55 (protein)
chain: B2 chain with F25L, H234P, T389K, D418E, K423T
modifications: Panax notoginseng
B11: GT29-4: Ginseng UDP-glycosyltransferase, 446 amino acids, SEQ ID NO: 12 (protein)
chain: MDNQEGRISIALLPFLAHGHISPFFELAKHLSKRNCNIFLCSTPINLSSIKNRISDKDSSASIKLVELHLPSSPDLPPHYHTTNGLPSHLMVPLRNAFETAAPTFSEILKTLNPDLLIYDFNPSWAPEIASSHNIPAVCFIIGGAASFSMSLHSFKNPGEKYPFLDFDDNSNITPEPPSADNMKLLLDFMTCFERSCDIILIKSFRELEGKYFDFYSTLSDKTLVPVGPLVQDPMGHNEDPKTEQFINWLDKRAESTVVFVCFGSEYFLSNEELEEVAIGLEISMVNFIWAVRLIEGEKKGVLPEGFVQRVGDRGLVVEGWAPQARILGHSSTGGFVSHCGWSSITESMKFGVPVIAMARHLDQPLNGKLAAEVGVGMEVVRDENGKYKREGIAEVIRKVVVEKSGEVMRRKARELSEKMKEKGEEEIDRAVEELVQICKKKKDAQ
modifications: misc_feature - GT29-4; Panax ginseng

Where a chain is given by its changes, count along the chain named.

A short description of one data set: In vitro transglycosylation at C-3, Rh2 as glycosyl acceptor, UDP-glucose as donor. In kind it is biochemical. As to conditions: crude enzyme (E. coli lysate supernatant); TLC, FIG. 13, FIG. 15. From the text:
(§1) Cell lysate of recombinant E. coli with empty vector pET28a was used as a control.
With B1, the “product formation from Rh2 and UDP-glucose (Rg3)” value (“product formation … (Rg3)” for short) is “can catalyze the extension of a glucosyl at the C-3 glycosyl of Rh2 to generate Rg3”.

For B2, the “product formation … (Rg3)” value is on record as “can catalyze the extension of a glucosyl at the C-3 glycosyl of Rh2 to generate Rg3”.

For the molecule B3, the “product formation … (Rg3)” value is “can catalyze the extension of a glucosyl at the C-3 glycosyl of Rh2 to generate Rg3”.

On to B4, for which the “product formation … (Rg3)” value is reported as “can catalyze the extension of a glucosyl at the C-3 glycosyl of Rh2 to generate Rg3”.

With B5, the “product formation … (Rg3)” value is given as “can catalyze the extension of a glucosyl at the C-3 glycosyl of Rh2 to generate Rg3”.

As for B6, the “product formation … (Rg3)” value is reported as “can catalyze the extension of a glucosyl at the C-3 glycosyl of Rh2 to generate Rg3”.

In the case of B7, the “product formation … (Rg3)” value was “can catalyze the extension of a glucosyl at the C-3 glycosyl of Rh2 to generate Rg3”.

Regarding B8, the “product formation … (Rg3)” value was “can catalyze the extension of a glucosyl at the C-3 glycosyl of Rh2 to generate Rg3”.

In the case of B9, the “product formation … (Rg3)” value was “can catalyze the extension of a glucosyl at the C-3 glycosyl of Rh2 to generate Rg3”.

For the molecule B10, the “product formation … (Rg3)” value is “can catalyze the extension of a glucosyl at the C-3 glycosyl of Rh2 to generate Rg3”.

A further data set in a line: In vitro transglycosylation at C-20, Rd as glycosyl acceptor, UDP-glucose as donor. The data set is classed as biochemical. As to conditions: crude enzyme (E. coli lysate supernatant); TLC/HPLC, FIG. 2, 3, 11.
Excerpt: as §1
Take B1: the “product formation from Rd and UDP-glucose (Rb1)” value (“product formation … (Rb1)” below) is “can catalyze the extension of a glucosyl at the C-20 glycosyl of Rd to generate Rb1”.

As for B2, the “product formation … (Rb1)” value is reported as “can catalyze the extension of a glucosyl at the C-20 glycosyl of Rd to generate Rb1”.

On to B3, for which the “product formation … (Rb1)” value was “can catalyze the extension of a glucosyl at the C-20 glycosyl of Rd to generate Rb1”.

In the case of B4, the “product formation … (Rb1)” value was “can catalyze the extension of a glucosyl at the C-20 glycosyl of Rd to generate Rb1”.

B5: the “product formation … (Rb1)” value is given as “can catalyze the extension of a glucosyl at the C-20 glycosyl of Rd to generate Rb1”.

Take B6: the “product formation … (Rb1)” value was “can catalyze the extension of a glucosyl at the C-20 glycosyl of Rd to generate Rb1”.

As to B7, the “product formation … (Rb1)” value is listed as “can catalyze the extension of a glucosyl at the C-20 glycosyl of Rd to generate Rb1”.

Regarding B8, the “product formation … (Rb1)” value is “can catalyze the extension of a glucosyl at the C-20 glycosyl of Rd to generate Rb1”.

Take B9: the “product formation … (Rb1)” value is on record as “can catalyze the extension of a glucosyl at the C-20 glycosyl of Rd to generate Rb1”.

B10: the “product formation … (Rb1)” value is given as “can catalyze the extension of a glucosyl at the C-20 glycosyl of Rd to generate Rb1”.

The nature of the next data set: In vitro transglycosylation at C-20, CK as glycosyl acceptor, UDP-glucose as donor. In kind it is biochemical. Conditions: crude enzyme (E. coli lysate supernatant); TLC/HPLC, FIG. 2, 3, 12, 16.
Excerpt: as §1
As shown in FIG. 16: Protopanaxadiol Ginsenoside CK is used as a glycosyl acceptor, and UDP-glucose is used as a glycosyl donor.
As for B1, the “product formation from CK and UDP-glucose (Gypenoside LXXV)” value (“product formation … (Gypenoside LXXV)” below) is “can catalyze the extension of a glucosyl at the C-20 glycosyl to generate Gypenoside LXXV”.

Consider B2, for which the “product formation … (Gypenoside LXXV)” value is “can catalyze the extension of a glucosyl at the C-20 glycosyl to generate Gypenoside LXXV”.

For the molecule B3, the “product formation … (Gypenoside LXXV)” value is on record as “can catalyze the extension of a glucosyl at the C-20 glycosyl to generate Gypenoside LXXV”.

B4: the “product formation … (Gypenoside LXXV)” value is given as “can catalyze the extension of a glucosyl at the C-20 glycosyl to generate Gypenoside LXXV”.

With B5, the “product formation … (Gypenoside LXXV)” value is “can catalyze the extension of a glucosyl at the C-20 glycosyl to generate Gypenoside LXXV”.

Consider B6, for which the “product formation … (Gypenoside LXXV)” value was “can catalyze the extension of a glucosyl at the C-20 glycosyl to generate Gypenoside LXXV”.

B7: the “product formation … (Gypenoside LXXV)” value was “can catalyze the extension of a glucosyl at the C-20 glycosyl to generate Gypenoside LXXV”.

Consider B8, for which the “product formation … (Gypenoside LXXV)” value is “can catalyze the extension of a glucosyl at the C-20 glycosyl to generate Gypenoside LXXV”.

Regarding B9, the “product formation … (Gypenoside LXXV)” value was “can catalyze the extension of a glucosyl at the C-20 glycosyl to generate Gypenoside LXXV”.

Consider B10, for which the “product formation … (Gypenoside LXXV)” value is given as “can catalyze the extension of a glucosyl at the C-20 glycosyl to generate Gypenoside LXXV”.

Another data set can be described thus: In vitro transglycosylation at C-6, Rg1 as glycosyl acceptor, UDP-xylose as donor. The data set is classed as biochemical. As to conditions: crude enzyme (E. coli lysate supernatant); TLC and HPLC, FIG. 7-9.
For B11, the “product formation from Rg1 and UDP-xylose (notoginsenoside R1)” value is reported as “can catalyze the formation of Notoginsenoside RI”.
